Data: patent US20050049195A1

Biological target: Wnt proteins
Experiment: cell-based or functional assay

| percent of injection sites with correct anterior turns of post-crossing commissural axons (open-book explant, collagen gel) [%] | Substance |
| --- | --- |
| 11 | Mouse sFRP1 (secreted Frizzled-related protein 1) (from UniProt Q8C4U3 32-314) |
| 25 | Mouse sFRP2 (secreted Frizzled-related protein 2), Myc epitope tagged (from UniProt P97299 25-295) |
| 25 | Mouse sFRP3 (secreted Frizzled-related protein 3), Myc epitope tagged (from UniProt P97401 33-323) |
